US20220372138A1 (IOMX THERAPEUTICS, published 2022)
Changes are numbered by the printed parent chain.

B1: A-023 (scFv format) (scFv, V domains shown)
VH: QVQLVQSGAEVKKPGSSVKVSCKASGGTFSSYAISWVRQAPGQGLEWMGGIIPIFGTANYAQKFQGRVTITADESTSTAYMELSSLRSEDTAVYYCARPKYSSGWFYYYGMDVWGQGTTVTVSS
VL: QSVLTQPPSVSAAPGQKVTISCSGSSSNIGNNYVSWYQQLPGTAPKLLIYDNNKRPSGIPDRFSGSKSGTSATLGITGLQTGDEADYYCGTWDSSLSVVFGGGTKLTVL
notes: scFv
B2: A-005 (scFv format) (scFv, V domains shown)
VH: EVQLVESGGGLIQPGGSLRLSCAASGFTVSSNYMSWVRQAPGKGLEWVSVIYSGGSTYYADSVKGRFTISRDNSKNTLYLQMNSLRAEDTAVYYCARGNPYYYGDLQVNFDYWGQGTLVTVSS
VL: QAVVTQEPSLTVSPGETVTLTCASSTGAVTSGYYPNWFQQRPGQAPRALIYSTSNKDSWTPARFSGSLLGGKAALTLSGVQPEDEAEYYCLLYYGGAWVFGGGTKLTVL
notes: scFv
B3: A-002 (scFv format) (scFv, V domains shown)
VH: B2 VH
VL: B2 VL with E16G, L20P, A23G, Y33N, Y34L, R41K, D57H, F64I
notes: scFv
B4: A-009 (scFv format) (scFv, V domains shown)
VH: QVQLVQSGAEVKKPGSSVKVSCKASGGTFSSYAISWVRQAPGQGLEWMGGIIPIFGTANYAQKFQGRVTITADESTSTAYMELSSLRSEDTAVYYCARGRGFGELYFDYWGQGTLVTVSS
VL: ETTLTQSPATLSVSPGERATLSCRASQGVRSNIAWYQQKPGQAPRLLIYDSSTRATGIPARFSGSGSGTEFTLTISSLQSEDFAVYSCQQYKNWPRTFGQGTKVEIK
notes: scFv
B5: A-014 (scFv format) (scFv, V domains shown)
VH: QVQLVQSGAEVKKPGASVKVSCKASGYTFNDYYIHWVRQAPGQGLEWMGWFNPSTGGANYAQKFQGRVTMTRDTSISTAYLEVSSLRSDDTAVYYCARGNSPDLDYWGQGTLVTVSS
VL: DIQMTQSPDSLTVSLGERATINCKSSQSLLHSSNNKNYLAWYQQRPGQPPKLLIYWASTRQSGVPDRFSGSGSGTDFTLTINSLQADDMAVYYCQQYYTTTPNTFGQGTKLEIK
notes: scFv
B6: A-024 (scFv format) (scFv, V domains shown)
VH: QMQLVQSGAEVKKPGSSVKVSCKASGGTFSSYAISWVRQAPGQGLEWMGWISAYNGNTNYAQKLQGRVTMTTDTSTSTAYMELRSLRSDDTAVYYCASLGSYGYTGAFDIWGQGTMATVSS
VL: QSALTQPASVSGSPGQSITISCTGTSSDVGGYNYVSWYQQHPGKAPKLMIYEVSNRPSGVSNRFSGSKSGNTASLTISGLQAEDEADYYCSSYTSSSTLVVFGGGTKLTVL
B7: A-017 (scFv format) (scFv, V domains shown)
VH: QVQLVQSGAEVKKPGASVKVSCKASGYTFTGYYMHWVRQAPGQGLEWMGWINPNSGNTGYAQKFQGRVTMTRNTSISTAYMELSSLRSEDTAVYYCARGGQQQLVLDDYWGQGTLVTVSS
VL: DIVLTQSPASLSASVGDRITITCQASQDIRHHLNWFQHKPGKAPKLLISDSSNLETGVPSRFSGSGSGTDFSFTISRLQPEDIATYYCQQYDSLPRTFGQGTKLEIK
notes: scFv
B8: A-021 (scFv format) (scFv, V domains shown)
VH: QVQLVQSGAEVKKPGASVKVSCKASGYTFTSYGISWVRQAPGQGLEWMGWISAYNGNTNYAQKLQGRVTMTTDTSTSTAYMELRSLRSDDTAVYYCARVPAWSGQFDYWGQGTLVTVSS
VL: QSALTQPASVSGSPGQSITISCTGTSSDVGGYNYVSWYQQHPGKAPKLMIYEVTNRPSGVSDRFSGSKSANTASLTISELQAEDEAVYYCNSYTSGPTYVLFGGGTQLTVL
notes: scFv
B9: C-013 (IgG1 format) (antibody, V domains shown)
VH: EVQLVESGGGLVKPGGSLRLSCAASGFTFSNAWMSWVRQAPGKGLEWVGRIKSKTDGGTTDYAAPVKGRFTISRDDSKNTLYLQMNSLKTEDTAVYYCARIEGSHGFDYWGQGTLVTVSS
VL: SYELTQPPSVSVSPGQTASITCSGDKLGDKYASWYQQKPGQSPVLVIYQDSKRPSGIPERFSGSNSGNTATLTISGTQAEDEADYYCASYLHTPKQFVFGGGTKLTVL
B10: C-014 (IgG1 format) (antibody, V domains shown)
VH: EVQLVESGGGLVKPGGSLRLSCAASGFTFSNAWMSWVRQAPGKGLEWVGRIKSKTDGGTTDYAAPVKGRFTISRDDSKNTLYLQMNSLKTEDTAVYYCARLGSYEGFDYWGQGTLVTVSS
VL: B9 VL with A88S, S89T, L91T, H92V, P94S, K95S, Q96V, F97V
B11: C-023 (IgG1 format) (antibody, V domains shown)
VH: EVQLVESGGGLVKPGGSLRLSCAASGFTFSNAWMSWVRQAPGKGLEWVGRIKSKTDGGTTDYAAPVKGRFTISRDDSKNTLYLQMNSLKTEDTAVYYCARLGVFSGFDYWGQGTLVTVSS
VL: B9 VL with A88H, S89T, Y90W, L91T, T93H, P94S, K95L, Q96A, F97V
B12: C-011 (IgG1 format) (antibody, V domains shown)
VH: QVQLVQSGAEVKKPGSSVKVSCKASGGTFSSYAISWVRQAPGQGLEWMGGIIPIFGTANYAQKFQGRVTITADESTSTAYMELSSLRSEDTAVYYCARHSTPSFLQYWGQGTLVTVSS
VL: SYELTQPPSVSVSPGQTASITCSGDKLGDKYASWYQQKPGQSPVLVIYQDSKRPSGIPERFSGSNSGNTATLTISGTQAEDEADYYCAVYPAHASARWVFGGGTKLTVL
B13: C-002 (IgG1 format) (antibody, V domains shown)
VH: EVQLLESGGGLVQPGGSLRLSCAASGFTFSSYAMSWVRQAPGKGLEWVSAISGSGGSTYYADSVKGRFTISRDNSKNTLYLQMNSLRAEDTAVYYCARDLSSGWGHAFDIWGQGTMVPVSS
VL: ASVLTQPPSVSAAPGQKVTISCSGSSSNIGNNYVSWYQQLPGTAPKLLIYDNNKRPSGIPDRFSGSKSGTSATLGITGLQAEDEADYYCLSYTTSEHHLVFGGGTKLTVL
B14: C-010 (IgG1 format) (antibody, V domains shown)
VH: B4 VH with R100Y, F102E, G103Y, E104Y, L105P, Y106A, Y109V
VL: B9 VL with L91A, P94H, K95S, Q96T, F97W
B15: C-006 (IgG1 format) (antibody, V domains shown)
VH: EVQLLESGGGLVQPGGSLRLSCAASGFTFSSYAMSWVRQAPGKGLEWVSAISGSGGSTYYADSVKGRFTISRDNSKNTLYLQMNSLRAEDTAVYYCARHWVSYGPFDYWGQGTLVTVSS
VL: DIQMTQSPSSLSASVGDRVTITCRASQSISSYLNWYQQKPGKAPKLLIYAASSLQSGVPSRFSGSGSGTDFTLTISSLQPEDFATYYCQQSHQSPPITFGQGTKVEIK
B16: C-021 (IgG1 format) (antibody, V domains shown)
VH: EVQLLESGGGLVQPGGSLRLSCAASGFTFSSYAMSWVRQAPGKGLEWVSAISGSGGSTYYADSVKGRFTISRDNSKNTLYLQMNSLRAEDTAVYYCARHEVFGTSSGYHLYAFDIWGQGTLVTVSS
VL: DIQMTQSPSSLSASVGDRVTITCRASQSISSYLNWYQQKPGKAPKLLIYAASSLQSGVPSRFSGSGSGTDFTLTISSLQPEDFATYYCQQWSGLPLTFGQGTKVEIK
B17: C-005 (Fab format) (Fab, V domains shown)
VH: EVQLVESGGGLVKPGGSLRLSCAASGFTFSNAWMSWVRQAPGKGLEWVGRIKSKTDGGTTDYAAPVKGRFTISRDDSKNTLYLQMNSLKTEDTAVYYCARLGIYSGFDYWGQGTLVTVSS
VL: B9 VL with A88H, L91T, H92G, T93K, K95S, F97V
notes: Fab from E. coli lysate
B18: C-009 (Fab format) (Fab, V domains shown)
VH: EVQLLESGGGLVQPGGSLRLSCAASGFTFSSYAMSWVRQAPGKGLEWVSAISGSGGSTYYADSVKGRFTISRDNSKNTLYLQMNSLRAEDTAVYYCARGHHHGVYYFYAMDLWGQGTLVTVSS
VL: B9 VL with A88Q, L91S, H92G, T93S, P94S, K95T, Q96L, F97H
notes: Fab from E. coli lysate
B19: C-008 (Fab format) (Fab, V domains shown)
VH: EVQLLESGGGLVQPGGSLRLSCAASGFTFSSYAMSWVRQAPGKGLEWVSAISGSGGSTYYADSVKGRFTISRDNSKNTLYLQMNSLRAEDTAVYYCTTDNGHNRDWGQGTLVTVSS
VL: ASVLTQPPSVSAAPGQKVTISCSGSSSNIGNNYVSWYQQLPGTAPKLLIYDNNKRPSGIPDRFSGSKSGTSATLGITGLQAEDEADYYCGTWTRSSGVFGGGTKLTVL
notes: Fab from E. coli lysate
B20: C-022 (Fab format) (Fab, V domains shown)
VH: EVQLLESGGGLVQPGGSLRLSCAASGFTFSSYAMSWVRQAPGKGLEWVSAISGSGGSTYYADSVKGRFTISRDNSKNTLYLQMNSLRAEDTAAYYCARMAAGASWGTFDYWSQGTLVTVSS
VL: B16 VL with W91R, L94S
notes: Fab from E. coli lysate
B21: C-007 (Fab format) (Fab, V domains shown)
VH: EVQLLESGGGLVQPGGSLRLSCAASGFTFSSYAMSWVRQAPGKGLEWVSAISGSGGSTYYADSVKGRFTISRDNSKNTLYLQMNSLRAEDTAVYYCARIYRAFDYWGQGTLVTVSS
VL: B13 VL with L90Q, S91L, T93E, T94E, S95E, E96H, H97S, H98T, L99W
notes: Fab from E. coli lysate
B22: C-026 (Fab format) (Fab, V domains shown)
VH: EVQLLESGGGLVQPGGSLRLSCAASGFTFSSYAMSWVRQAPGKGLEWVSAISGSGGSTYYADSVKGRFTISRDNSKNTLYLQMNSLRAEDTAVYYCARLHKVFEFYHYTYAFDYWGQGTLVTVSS
VL: B13 VL with L90A, T93S, T94S, S95E, E96T, H97S, H98G, L99W
notes: Fab from E. coli lysate
B23: C-001 (Fab format) (Fab, V domains shown)
VH: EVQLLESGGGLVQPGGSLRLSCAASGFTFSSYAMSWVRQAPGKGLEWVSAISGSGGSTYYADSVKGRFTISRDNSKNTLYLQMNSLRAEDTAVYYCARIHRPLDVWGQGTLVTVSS
VL: B13 VL with L90G, Y92W, T93L, T94E, S95E, E96R, H97S, H98Q, L99Y
notes: Fab from E. coli lysate

target: T1, extracellular domain (ECD) of human IGSF11 (VSIG3), recombinant (human, UniProt Q5DX21 23-241); test: ELISA RFU 0.5-1.0
T1 construct: biotinylated where captured on streptavidin; tags of the reagent not always stated; also called IGSF11 (ECD domain); ECD-IGSF11
T1 sequence: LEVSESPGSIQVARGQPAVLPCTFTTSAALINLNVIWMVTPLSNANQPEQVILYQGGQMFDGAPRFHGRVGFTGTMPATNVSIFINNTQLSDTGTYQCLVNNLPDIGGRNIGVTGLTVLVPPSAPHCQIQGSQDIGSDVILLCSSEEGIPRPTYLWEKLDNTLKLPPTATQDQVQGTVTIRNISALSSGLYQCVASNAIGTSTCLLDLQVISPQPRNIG

| Binder | ELISA binding signal (RFU) |
| --- | --- |
| B1 | 0.5 to 1 rfu |
| B2 | 0.5 to 1 rfu |
| B3 | 0.5 to 1 rfu |
| B4 | 0.5 to 1 rfu |
| B5 | 0.5 to 1 rfu |
| B6 | 0.5 to 1 rfu |
| B7 | 0.5 to 1 rfu |
| B8 | 0.5 to 1 rfu |

target: T2, ECD of murine IGSF11, recombinant biotinylated (mouse, UniProt P0C673 23-240); test: ELISA RFU 0.1-0.5
T2 construct: whole entry named; also called Mouse IGSF11
T2 sequence: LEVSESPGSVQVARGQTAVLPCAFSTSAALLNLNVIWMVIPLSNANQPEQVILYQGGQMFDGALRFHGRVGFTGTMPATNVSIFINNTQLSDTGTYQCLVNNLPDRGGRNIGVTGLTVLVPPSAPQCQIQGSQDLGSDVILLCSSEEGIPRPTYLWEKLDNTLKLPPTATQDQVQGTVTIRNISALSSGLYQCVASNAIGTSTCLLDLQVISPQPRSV

| Binder | ELISA binding signal (RFU) |
| --- | --- |
| B1 | 0.1 to 0.5 rfu |
| B2 | 0.1 to 0.5 rfu |
| B3 | 0.1 to 0.5 rfu |
| B4 | 0.1 to 0.5 rfu |
| B5 | 0.1 to 0.5 rfu |
| B6 | 0.1 to 0.5 rfu |
| B7 | 0.1 to 0.5 rfu |
| B8 | 0.1 to 0.5 rfu |

target: T3, full-length ECD of human IGSF11 fused to murine Fc (human, UniProt Q5DX21 23-241); test: IgG ELISA;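 note: ELISA binding of IgG antibodies to plate-coated IGSF11 Fc-fusion proteins (full-length ECD, IgV or IgC2 domain), detected via HRP-labelled anti-human IgG with TMB development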
T3 construct: also called Fc-fusion IGSF11 ECD; not shown: murine Fc
T3 sequence: T1 sequence

| Binder | EC50 |
| --- | --- |
| B9 | 1 to 20 nM |
| B10 | 1 to 20 nM |
| B11 | < 1 nM |
| B12 | < 1 nM |
| B13 | 1 to 20 nM |
| B14 | 20 to 100 nM |
| B15 | 1 to 20 nM |

target: T4, IgC2 domain of human IGSF11 fused to murine IgG2a Fc (human, UniProt Q5DX21 137-241); test: IgG ELISA;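 note: ELISA binding of IgG antibodies to plate-coated IGSF11 Fc-fusion proteins (full-length ECD, IgV or IgC2 domain), detected via HRP-labelled anti-human IgG with TMB development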
T4 construct: not shown: murine IgG2a Fc-region
T4 sequence: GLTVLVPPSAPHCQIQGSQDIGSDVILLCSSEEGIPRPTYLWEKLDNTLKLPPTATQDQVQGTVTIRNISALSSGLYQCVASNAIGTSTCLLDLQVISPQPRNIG

| Binder | EC50 |
| --- | --- |
| B9 | < 1 nM |
| B10 | < 1 nM |
| B11 | < 1 nM |
| B12 | < 1 nM |
| B16 | < 1 nM |
| B13 | < 1 nM |
| B14 | 1 to 20 nM |
| B15 | < 1 nM |

target: Streptavidin (UniProt P22629 37-163, limits assumed); test: Fab ELISA
Sequence (P22629 37-163 limits assumed): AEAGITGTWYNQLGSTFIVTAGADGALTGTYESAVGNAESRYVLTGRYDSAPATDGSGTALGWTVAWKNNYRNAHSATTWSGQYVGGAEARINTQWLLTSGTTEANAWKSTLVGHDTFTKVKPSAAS
Protocol: In order to identify IGSF11-specific binding ABPs, monoclonal Fabs expressed from E. coli were generated from the enriched set of anti-IGFS11 antibody-expressing phage. After bacterial lysis, the Fabs were tested for their binding properties and cross-reactivity profile on recombinant ECD-IGSF11 (human, mouse and cynomolgus monkey) by standard ELISA. Briefly, biotinylated recombinant ECD-IGSF11 from human, mouse, or cynomolgus monkey were immobilized at 2 ug/mL on a streptavidin-coated 384-well Maxisorp plate. The surface was blocked with 2% (w/v) skim milk powder in PBST. After three wash cycles with PBST, a bacterial lysate of each of the anti-IGSF11 Fabs in 2% (w/v) skim milk powder was applied to the immobilized IGSF11 and incubated for 1 h. After removing all unbound Fab by 3 wash cycles with PBST, bound Fab antibodies were detected with a goat anti-human Fab antibody conjugated with horseradish peroxidase. After three wash cycles with PBST the ELISA was developed with TMB substrate.

| Binder | A450 |
| --- | --- |
| B17 | < 0.1 |
| B18 | < 0.1 |
| B19 | < 0.1 |
| B20 | < 0.1 |
| B21 | < 0.1 |
| B22 | < 0.1 |
| B23 | < 0.1 |
